Data reported in IntAct's records for PubMed 21751375.

Columns and labels:
ctnb1_human CTNNB1 = ctnb1_human CTNNB1 (UniProt P35222)
ctnb1_mouse Ctnnb1 = ctnb1_mouse Ctnnb1 (UniProt Q02248)
Sequence of ctnb1_mouse Ctnnb1 (Q02248 whole entry): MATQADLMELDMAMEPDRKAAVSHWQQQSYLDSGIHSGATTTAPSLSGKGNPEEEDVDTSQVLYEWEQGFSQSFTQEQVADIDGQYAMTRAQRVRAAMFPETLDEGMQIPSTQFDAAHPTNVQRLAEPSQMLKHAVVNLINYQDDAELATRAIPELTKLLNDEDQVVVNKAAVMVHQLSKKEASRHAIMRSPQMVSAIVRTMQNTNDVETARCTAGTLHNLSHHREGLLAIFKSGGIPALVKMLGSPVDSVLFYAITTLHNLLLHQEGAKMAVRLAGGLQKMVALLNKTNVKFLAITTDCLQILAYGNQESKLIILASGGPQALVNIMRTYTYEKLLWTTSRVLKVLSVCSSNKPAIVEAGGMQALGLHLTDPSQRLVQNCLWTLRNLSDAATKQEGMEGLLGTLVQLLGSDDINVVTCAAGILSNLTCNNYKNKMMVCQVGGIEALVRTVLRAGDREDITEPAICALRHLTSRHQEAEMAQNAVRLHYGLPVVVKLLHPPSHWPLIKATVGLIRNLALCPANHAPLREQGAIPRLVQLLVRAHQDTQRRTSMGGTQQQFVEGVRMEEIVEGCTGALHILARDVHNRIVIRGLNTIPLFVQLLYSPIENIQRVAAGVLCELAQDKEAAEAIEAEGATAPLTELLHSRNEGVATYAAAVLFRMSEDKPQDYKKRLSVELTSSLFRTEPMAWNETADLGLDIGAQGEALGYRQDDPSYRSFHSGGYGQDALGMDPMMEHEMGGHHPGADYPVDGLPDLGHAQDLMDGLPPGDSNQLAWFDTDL

Sequence of ctnb1_human CTNNB1 (P35222 whole entry): as the sequence (Q02248 whole entry) above, with A706P counted along it

effect of a mutation on the interaction (ctnb1_human CTNNB1) | effect of a mutation on the interaction (ctnb1_mouse Ctnnb1) | Substance
decreasing interaction | – | CREB-binding protein (Homo sapiens), Q92793 S92A
– | decreasing interaction | Histone lysine acetyltransferase CREBBP (Mus musculus), P45481 S92A
